From publication PMC8141531

Tests used:
Test in all cases: SPR
[1] = molecular target: heterodimeric IL-2Rαβ (human IL-2Rα-Fc chimera and human IL-2Rβ-Fc chimera captured together) (human) (UniProt P01589)
[2] = molecular target: human IL-2Rβ-Fc chimera (human) (UniProt P14784)
[3] = molecular target: human IL-2Rα-Fc chimera (human) (UniProt P01589)

UniProt P14784, sequence (P14784 27-240, change not shown): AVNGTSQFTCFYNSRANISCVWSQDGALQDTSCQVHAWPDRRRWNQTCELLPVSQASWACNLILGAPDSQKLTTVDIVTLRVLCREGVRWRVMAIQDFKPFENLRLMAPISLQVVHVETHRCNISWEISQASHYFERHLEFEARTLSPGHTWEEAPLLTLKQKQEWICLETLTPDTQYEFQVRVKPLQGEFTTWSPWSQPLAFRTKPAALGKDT

Kd [1]: 1.7 µM | Kd [2]: 88 µM | Kd [3]: 7.3 µM
Substance: NKTR-358, a PEGylated form of rhIL-2 (aldesleukin sequence) (from UniProt P60568 21-153) (ligand)
